doi:10.1101/2022.05.03.490496

Target: amino-terminal ∼1400 amino-acid segment of human MUC2 (human)
Assay: western blot of disulfide-bonded dimers

stoichiometry N: 2
Substance: amino-terminal ∼1400 amino-acid segment of human MUC2 (domain or fragment)
